# Data as given in patent US8273855 (JIANGSU NOVAVAC BIO TEC, dated 2012).
# B1: CHL1-Fc (Fc fusion, UniProt P70232 26-1083, looked up)
# chain: EIPLSVQQVPTIVKQSYVQVAFPFDEYFQIECEAKGNPEPIFSWTKDDKPFDLSDPRIIAANNSGTFKIPNEGHISHFQGKYRCFASNRLGTAVSEEIEFIVPGVPKFPKEKIEPIDVEEGDSIVLPCNPPKGLPPLHIYWMNIELEHIEQDERVYMSQRGDLYFANVEENDSRNDYCCFAAFPKLRTIVQKMPMKLTVNSSNSIKQRKPKLLLPPAQMGSLSAKTVLKGDTLLLECFAEGLPTPHIQWSKPGSELPEGRATIEVHEKTLKIENISYQDRGNYRCTANNLLGKASHDFHVTVEEPPRWKKKPQSAVYSTGSSGILLCEAEGEPQPTIKWRLNGLPIEKHPFPGDFMFPREISFTNLLPNHTGVYQCEASNIHGTILANANIDVIDVIPLIKTKNEENYATVVGYSAFLHCEYFASPKATVVWEVADETHPLEGDRYHTHENGTLEIYRTTEEDAGSYSCWVDNAMGKAVITANLDIRNATKLRVSPKNPRIPKSHVLELYCESQCDSHLKHSLKLSWSKDGEAFEMNGTEDGRIVIDGAYLTISNITAEDQGVYSCSAQTSLDSTSEKTQVTVLGVPDPPGNLHLSERQNRSVRLSWEAGDDHNSKISEYIVEFEGNREEPGKWEELTRVQGEETDVVLSLAPYVRYQFRVTAVNEVGRSHASLPSDHHETPPAAPDKNPQNIRVQASQPKEMIIKWEPLKSMEQNGPGLEYKVSWKPQGAPEEWEEEIVTNHTLRVMTPTVYAPYDVKVQAINQLGSSPDPQPVTLYSGEDYPSTAPVIQRVDVMNSTLVKVTWSSIPKETVHGLLRGYQINWWKTKSLLDGRTHPKEVNILRFSGQRNSGMVPSLDPFSEFHLTVLAYNSKGAGPESEPYIFQTPEGVPEQPSFLKVIKVDKDTATLSWGLPKKLNGNLTGYLLQYQIINDTYELGELNEINVTTPSKSSWHLSNLNSTTKYKFYLRACTSRGCGKPISEEGATLGEGSKGIRKITEGVNVTQKIHPVEVLVPGAEHIVHLMTKNWGDNDSIFQDVIETRGREYAGLYDDISTQGW
# notes: Control substrate; also called CHL-Fc; not shown: human IgG Fc
# B2: GST-Nogo-N (other, human, UniProt Q9NQC3 186-370, looked up)
# chain: DETLFALPAASEPVIRSSAENMDLKEQPGNTISAGQEDFPSVLLETAASLPSLSPLSAASFKEHEYLGNLSTVLPTEGTLQENVSEASKEVSEKAKTLLIDRDLTEFSELEYSEMGSSFSVSPKAESAVIVANPREEIIVKNKDEEEKLVSNNILHNQQELPTALTKLVKEDEVVSSEKAKDSFN
# notes: domain: cytoplasmic N-terminal domain of Nogo-A (Nogo-N); also called Nogo-N-GST; Nogo-N-terminal-GST; not shown: glutathione S-transferase (GST) encoded by vector pGEX-KG
# Assays:
# Notch2 on OLN-93 cells = molecular target: T1, Notch2 on OLN-93 cells (rat, UniProt Q9QW30 26-2471); assay: OLN-93 cell adhesion to control substrate
# T1 construct: whole, on cells; also called OLN cells
# Method: (§1) This was carried out as previously described (Xiao et al, 1996). Briefly, 35 mm tissue culture petri dishes (Becton Dickinson) were coated with methanol solubilized nitrocellulose (Lagenaur and Lemon, 1987) and air-dried under a sterile hood. […] Subsequently, the dishes were washed three times with calcium- and magnesium-free Hank's balanced salt solution (CMF-HBSS) and blocked overnight with 2% heat-inactivated fatty acid-free BSA (Sigma) in CMF-HBSS (this blocking step is skipped in the repulsion test). […] After 0.5 hour (in the adhesion test) or 12 hours (in the repulsion test), the dishes were gently washed three times with CMF-HBSS and the cells were fixed with 2.5% glutaldehyde in CMF-HBSS. […] Cells adhering to the various spots were photographed and counted. The results were analyzed by Student's t test with p<0.05 and p<0.01 being considered significant or highly significant difference, respectively.
# Notch1 on OLN-93 cells = molecular target: T2, Notch1 on OLN-93 cells (rat, UniProt Q07008 19-2531); assay: OLN-93 cell adhesion to control substrate
# T2 construct: whole, on cells; OLN-93 cells carry both Notch1 and Notch2; also called OLN cells
# Method: as §1
# [1] = molecular target: T3, F3 on F3-transfected CHO cells (UniProt P12960 21-1001); assay: cell adhesion assay, F3-CHO cells on coated substrate
# T3 construct: whole, on cells; also called F3-CHO; F3-expressing CHO cells
# T3 sequence (looked up): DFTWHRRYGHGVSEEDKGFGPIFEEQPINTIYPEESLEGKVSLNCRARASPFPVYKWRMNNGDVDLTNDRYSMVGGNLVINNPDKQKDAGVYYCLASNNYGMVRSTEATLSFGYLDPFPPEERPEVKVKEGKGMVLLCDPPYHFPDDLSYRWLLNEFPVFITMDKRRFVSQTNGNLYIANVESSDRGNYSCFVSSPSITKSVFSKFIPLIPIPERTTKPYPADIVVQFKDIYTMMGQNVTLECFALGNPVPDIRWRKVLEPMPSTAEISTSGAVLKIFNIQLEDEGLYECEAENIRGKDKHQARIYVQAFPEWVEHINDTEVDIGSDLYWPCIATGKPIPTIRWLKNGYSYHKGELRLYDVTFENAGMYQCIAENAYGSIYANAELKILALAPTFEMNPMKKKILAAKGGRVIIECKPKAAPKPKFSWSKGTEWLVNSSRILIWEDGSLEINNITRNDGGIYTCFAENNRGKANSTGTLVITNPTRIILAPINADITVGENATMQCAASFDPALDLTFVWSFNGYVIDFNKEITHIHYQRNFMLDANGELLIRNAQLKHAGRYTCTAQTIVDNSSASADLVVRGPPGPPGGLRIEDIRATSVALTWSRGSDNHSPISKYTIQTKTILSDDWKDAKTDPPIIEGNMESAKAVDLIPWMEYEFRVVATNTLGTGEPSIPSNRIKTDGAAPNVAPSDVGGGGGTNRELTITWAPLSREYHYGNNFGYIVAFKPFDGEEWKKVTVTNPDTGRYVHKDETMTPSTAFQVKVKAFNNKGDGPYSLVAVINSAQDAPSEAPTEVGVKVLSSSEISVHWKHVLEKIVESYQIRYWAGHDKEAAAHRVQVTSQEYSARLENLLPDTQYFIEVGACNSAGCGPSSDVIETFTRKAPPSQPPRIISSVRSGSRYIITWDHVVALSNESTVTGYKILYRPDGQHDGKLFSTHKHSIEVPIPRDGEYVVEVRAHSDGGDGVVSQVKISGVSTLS
# [2] = molecular target: T4, Kv1.1 (native, mouse brain extracts) (mouse, UniProt P16388 1-495); assay: GST pull-down from adult mouse brain membrane extracts
# T4 construct: also called Kv1.1 K+ channel alpha-subunit
# Excerpt: (§2) During myelination, the proper segregation of K^+ channels to juxtaparanodes requires an intact paranodal axoglial junction (Vabnick and Shrager, 1998).
# [3] = molecular target: T5, Caspr (native, mouse brain) (mouse, UniProt O54991 21-1385); assay: as above
# T5 construct: also called mouse Caspr
# T5 sequence (looked up): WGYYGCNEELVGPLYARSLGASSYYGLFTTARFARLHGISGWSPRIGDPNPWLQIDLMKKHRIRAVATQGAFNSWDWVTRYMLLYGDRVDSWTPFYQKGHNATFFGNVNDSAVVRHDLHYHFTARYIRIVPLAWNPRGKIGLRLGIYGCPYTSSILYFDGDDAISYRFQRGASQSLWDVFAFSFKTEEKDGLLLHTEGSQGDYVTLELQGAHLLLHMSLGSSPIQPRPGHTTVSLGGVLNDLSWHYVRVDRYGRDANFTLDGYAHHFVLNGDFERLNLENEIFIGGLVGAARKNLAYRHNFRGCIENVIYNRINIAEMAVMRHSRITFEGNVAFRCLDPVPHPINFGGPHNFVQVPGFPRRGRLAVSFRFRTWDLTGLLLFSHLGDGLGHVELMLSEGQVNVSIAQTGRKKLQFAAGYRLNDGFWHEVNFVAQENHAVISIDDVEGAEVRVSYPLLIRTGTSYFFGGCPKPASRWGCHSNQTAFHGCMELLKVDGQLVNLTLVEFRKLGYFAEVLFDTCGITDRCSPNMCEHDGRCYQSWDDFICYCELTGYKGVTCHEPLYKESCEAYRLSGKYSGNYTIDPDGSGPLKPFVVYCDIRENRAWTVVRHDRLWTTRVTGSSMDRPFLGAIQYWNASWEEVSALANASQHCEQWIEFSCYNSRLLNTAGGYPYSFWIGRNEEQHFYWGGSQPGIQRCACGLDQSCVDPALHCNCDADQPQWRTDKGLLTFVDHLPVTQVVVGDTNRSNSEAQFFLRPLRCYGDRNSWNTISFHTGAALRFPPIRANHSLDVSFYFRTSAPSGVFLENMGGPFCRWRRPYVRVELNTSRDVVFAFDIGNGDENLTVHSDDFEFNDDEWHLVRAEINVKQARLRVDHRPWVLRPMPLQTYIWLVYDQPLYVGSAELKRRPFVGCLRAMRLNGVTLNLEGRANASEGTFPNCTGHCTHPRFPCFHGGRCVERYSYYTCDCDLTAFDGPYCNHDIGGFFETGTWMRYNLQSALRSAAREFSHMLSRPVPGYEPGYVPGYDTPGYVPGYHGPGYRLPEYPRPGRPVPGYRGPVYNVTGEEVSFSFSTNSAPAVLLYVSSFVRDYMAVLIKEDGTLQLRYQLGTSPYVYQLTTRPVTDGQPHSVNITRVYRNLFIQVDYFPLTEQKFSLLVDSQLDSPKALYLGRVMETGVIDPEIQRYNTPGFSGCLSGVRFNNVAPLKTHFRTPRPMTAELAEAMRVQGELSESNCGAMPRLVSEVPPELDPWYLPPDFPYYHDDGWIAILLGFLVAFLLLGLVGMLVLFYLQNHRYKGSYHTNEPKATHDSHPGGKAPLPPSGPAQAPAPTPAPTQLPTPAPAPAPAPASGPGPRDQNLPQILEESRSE
# Excerpt: as §2
# T1 sequence (Q9QW30 26-2471): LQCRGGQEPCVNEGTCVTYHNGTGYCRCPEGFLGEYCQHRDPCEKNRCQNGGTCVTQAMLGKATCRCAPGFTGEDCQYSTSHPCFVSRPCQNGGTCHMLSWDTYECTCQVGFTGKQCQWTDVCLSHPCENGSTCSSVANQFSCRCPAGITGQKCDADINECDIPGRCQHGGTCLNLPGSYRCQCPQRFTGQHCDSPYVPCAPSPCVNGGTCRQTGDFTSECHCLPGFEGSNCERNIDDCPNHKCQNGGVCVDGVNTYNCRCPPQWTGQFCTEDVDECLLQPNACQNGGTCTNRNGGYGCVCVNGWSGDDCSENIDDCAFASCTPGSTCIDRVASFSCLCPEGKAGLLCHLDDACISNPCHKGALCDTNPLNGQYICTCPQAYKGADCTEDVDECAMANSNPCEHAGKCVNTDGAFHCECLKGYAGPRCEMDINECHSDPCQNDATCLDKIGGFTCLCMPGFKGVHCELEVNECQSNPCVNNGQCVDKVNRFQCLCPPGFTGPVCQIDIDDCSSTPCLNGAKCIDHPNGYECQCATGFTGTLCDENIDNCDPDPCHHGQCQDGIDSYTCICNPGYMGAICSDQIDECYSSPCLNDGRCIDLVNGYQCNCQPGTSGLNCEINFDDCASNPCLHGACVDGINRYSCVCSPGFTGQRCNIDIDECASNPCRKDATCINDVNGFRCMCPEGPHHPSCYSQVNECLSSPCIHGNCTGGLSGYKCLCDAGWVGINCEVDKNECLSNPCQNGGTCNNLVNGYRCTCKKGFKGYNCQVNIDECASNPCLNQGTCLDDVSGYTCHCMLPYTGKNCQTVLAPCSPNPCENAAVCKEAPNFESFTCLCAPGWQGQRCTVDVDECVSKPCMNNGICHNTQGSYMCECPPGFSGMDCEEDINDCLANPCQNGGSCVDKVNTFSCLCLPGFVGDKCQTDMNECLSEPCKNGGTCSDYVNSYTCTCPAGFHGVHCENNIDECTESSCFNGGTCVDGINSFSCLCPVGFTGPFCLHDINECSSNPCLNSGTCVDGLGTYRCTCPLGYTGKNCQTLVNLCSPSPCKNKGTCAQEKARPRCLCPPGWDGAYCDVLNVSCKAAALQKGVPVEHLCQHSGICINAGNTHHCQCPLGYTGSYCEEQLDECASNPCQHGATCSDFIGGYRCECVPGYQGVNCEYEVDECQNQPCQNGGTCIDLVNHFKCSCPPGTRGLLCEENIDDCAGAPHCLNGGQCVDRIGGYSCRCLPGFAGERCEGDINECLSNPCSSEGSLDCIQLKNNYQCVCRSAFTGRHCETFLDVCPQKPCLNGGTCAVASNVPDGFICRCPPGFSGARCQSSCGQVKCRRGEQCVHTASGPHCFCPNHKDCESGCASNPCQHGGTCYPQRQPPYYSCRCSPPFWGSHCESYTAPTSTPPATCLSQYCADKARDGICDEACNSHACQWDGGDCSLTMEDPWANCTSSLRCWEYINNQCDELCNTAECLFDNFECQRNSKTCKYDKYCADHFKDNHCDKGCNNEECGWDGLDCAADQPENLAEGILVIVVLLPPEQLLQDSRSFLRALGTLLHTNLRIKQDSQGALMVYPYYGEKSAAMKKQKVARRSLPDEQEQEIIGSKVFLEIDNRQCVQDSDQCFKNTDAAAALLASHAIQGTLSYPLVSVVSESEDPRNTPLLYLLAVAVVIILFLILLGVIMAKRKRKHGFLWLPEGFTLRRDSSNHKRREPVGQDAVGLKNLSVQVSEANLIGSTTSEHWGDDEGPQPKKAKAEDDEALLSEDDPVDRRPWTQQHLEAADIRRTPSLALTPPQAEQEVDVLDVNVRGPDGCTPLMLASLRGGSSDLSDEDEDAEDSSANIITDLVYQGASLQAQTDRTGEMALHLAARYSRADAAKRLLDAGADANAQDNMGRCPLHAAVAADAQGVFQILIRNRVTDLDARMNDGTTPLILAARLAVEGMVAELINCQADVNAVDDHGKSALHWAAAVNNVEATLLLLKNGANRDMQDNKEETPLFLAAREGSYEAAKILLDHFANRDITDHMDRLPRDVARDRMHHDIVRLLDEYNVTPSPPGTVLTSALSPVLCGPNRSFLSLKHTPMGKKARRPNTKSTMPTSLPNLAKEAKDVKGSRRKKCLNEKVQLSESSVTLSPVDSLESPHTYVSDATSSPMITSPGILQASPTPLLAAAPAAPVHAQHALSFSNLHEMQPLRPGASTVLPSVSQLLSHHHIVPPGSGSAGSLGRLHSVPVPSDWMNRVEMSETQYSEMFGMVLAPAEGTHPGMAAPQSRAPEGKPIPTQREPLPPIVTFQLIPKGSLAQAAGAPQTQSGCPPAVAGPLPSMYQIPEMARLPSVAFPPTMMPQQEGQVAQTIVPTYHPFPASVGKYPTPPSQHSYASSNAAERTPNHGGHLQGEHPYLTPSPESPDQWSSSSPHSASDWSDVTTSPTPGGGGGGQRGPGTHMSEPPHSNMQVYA
# T4 sequence (P16388 whole entry): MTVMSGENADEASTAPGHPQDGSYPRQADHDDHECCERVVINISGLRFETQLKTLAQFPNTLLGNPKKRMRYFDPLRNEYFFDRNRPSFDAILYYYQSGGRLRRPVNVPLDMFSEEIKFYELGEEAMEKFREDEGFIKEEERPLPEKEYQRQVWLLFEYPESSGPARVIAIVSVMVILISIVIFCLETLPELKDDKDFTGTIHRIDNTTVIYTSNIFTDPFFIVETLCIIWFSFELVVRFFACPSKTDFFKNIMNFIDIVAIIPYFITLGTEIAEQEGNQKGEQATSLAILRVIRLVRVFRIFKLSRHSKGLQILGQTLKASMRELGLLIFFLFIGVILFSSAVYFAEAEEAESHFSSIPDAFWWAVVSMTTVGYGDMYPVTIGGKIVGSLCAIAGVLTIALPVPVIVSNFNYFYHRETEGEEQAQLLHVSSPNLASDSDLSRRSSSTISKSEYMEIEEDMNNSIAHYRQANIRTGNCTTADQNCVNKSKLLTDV
Binder,binding result (Notch2 on OLN-93 cells),binding result (Notch1 on OLN-93 cells),binding result [1],binding result [2],binding result [3]
B1,no binding (tested: 2.5 µl of 12 µM CHL1-Fc spotted),no binding (tested: 2.5 µl of 12 µM CHL1-Fc spotted),,,
B2,,,no binding,no binding (tested: 20 µg bead-bound protein),no binding (tested: 20 µg bead-bound protein)
